Results reported in the DeepSol protein solubility set.

Experiment: soluble on expression in E. coli; label from the status in PepcDB or PDB records

| Sequence | soluble on expression in E. coli |
| --- | --- |
| MSLEHWNKTFCLEVKGDYACFTRPEMKVERVSYDVITPSAARGIFEAIFWKPAIRWRIRKIEVLNPIKWISVRRNEVGQTASERSDGIFIETARQQRAGLFLRDVAYRLHAELEFVPPSERPDAKRPVPESLQDGRETSELRKDENPGKYYAIFERRARKGQCFNQPYLGCREFSCEFRLVDDLANEPPPISETRNLGFMLYDLDFQKNLKEPPPAFFPACLEKGVIKVPDWESEEVRKEGHHHHHH | soluble |
| MSLEIPKDFFVKDGEPNVKIVVGSEGAAMDVVSAADIAAAIGSLLYTEKEVKVSDVSVVVRKDITYDPDDIPVFNNFYPNKNQVFIVGQDSLKDVEAWWNGSAFSANYTASVWNGGTYSGTYSLELENVANYGKYDLTGELTLKGITLEEIANNEVNFKDIEDFKDMTVKINSAVLNITLAVYNWTKTVKAKDPITGVTTTKVKWTLSNVQPGAGYSISDTISKGVGEGVTLKVFDKEFPIMFVGKAISKNAIVDAADSFVYGTYHGTDFYDQGQEVEFDGYKVEILDIDIQRNEGHHHHHH | not soluble |
| MSLEKKDTNSLKLLLIGNTGIGEYKSRAERKGLWYKLKRFLWTNEFDQTVSALAKWHAEEKADAVLGLGDFLGIPGPLSARDERFTKRWYDIFVKDAKLDIPWLMTLGEEEALVNPSASVRHHYTGEHPNWYMPNDAYTATFSFSTSMTMANGTIQHEAFNATVINVNTWNLFVGNPIANNMQSMMDRLMWLSDQLYTAVNQTTNWLIIMGHLPLVSTGPQGEQGRLQYVDDLYKNGQPRGPEAVLIQMLLSHYQVDLYVSAHDHFMEYVALEDLSKNTTTAFITSGAAVRLLDKDVGRGWIGRLRGALYPILCWSGRRILYAFHPGEGHHHHHH | not soluble |
| MSLEKLLPDPDPTFERPYTLCLSLDDLLIHSEWTREHGWRIAKRPGVDYFIRYLSQYYELVLFTTTPYATGEPVMRKLDPFRLILWPLYREATKFEDGEIVKDLSYLNRDLSKVIIIDTKAKHVRNQPDNAIILDPWKGDKDDKNLVNLIPFLEYIHTMQYSDVRKVIKSFDGKDIPTEGHHHHHH | soluble |
| MSLELEQLTSNSIRPYIPKGTHPVETGKYLISTNEIDRMYQTVLQWIGNRIPGAIIYGRPRLGKTRAITYLMNCLPQDFGNNMPIYHVRCRTYKRPNENSFFEDLLLAVGHSIAIQGKANVKRNRLLKFLVERSDFSGTNKVVFFIDDAQRLVEIHYDWLMDLFNELEQYGITLTTILVGQKELVHQRSAFISGEKFQIVGRFMSQEYQFKGIKTPRDLKICLTGYDEYCEYPINSNWSFTKYFFADSFIRGLRLQNSAEELFQVFVDLRREHGLSQKVEIPMQHITLTVEYALKNFGIDNLDLTTIEKTHWEESIKNSGYIQSELYQTTEGHHHHHH | not soluble |
| MSLENRGILFDKDGTCIRFDTLWQAGLQACFETLSMLAPHHSAEIKKILAIQEQRFLQKHLLDEVLYQELYQELAQFEELVEQGISSRWLEQFFYDYLRKNLKKIEPIGDLKQLFLELKRKNYKIGLATSDTLPATMLIMEYLGLTEMFDFIATGDRYLPKPDADMLQAFCQSCQLKATEVIMVGDSLVDVFMGTCHGKAGIGVLTGNCQSTDFEKFEVAYFRDIHEIPYQELWGNTKKKKIYYVEGHHHHHH | soluble |
| MSLENVTMGFWYVSPRRGPHRTTRQISAGTWEEVRPNYTTPVADAMDRLMKTTPEDIAGRLLLLHGPPGTGKTSALRTLARSWRDWCQVDCVLDPERLFSDVGYLMDIAIGEEDGTGKGRWRLLLLEDCDELIRGEAKHTAGQALSRLLNLTDGLLGQGRNVLVGVTTNEDLERLHPAVVRPGRCLARIEVGPLTRREAVNWLGTEEGVGREGATLAELYALRRGTSPTSLPEPREGAEGHHHHHH | soluble |
| MSLEPDPDYVEPRLEGPQKQAASEIIEDVRKGGFHVSLIDGVTGSGKTEVYFEAVAETLRQGKQVLILLPEIALTAAFLERFQDRFGAKPAEWHSDLSPRMREKVWRQAVTGEIKVVAGARSALFLPFDNLGLIIVDEEHDPAYKQEDRVFYNARDMAVVRARIAEFPVVLVSATPSVESQVNGSSGRYNTIHLHTRFGDAAMPDLHLVDMRRHPPERGGFLSPVLLRGIGKTIEKGEQSLLFLNRRGYAPLTLCRVCGHRFQCPQCSSWLVEHRFRNQLQCHQCGHNEPTPDHCPECGTFDHLVACGPGVERIAEEVEKHFPEARTIVLSSDLMGVKRLRLELEAIVKGEADIVIGTQLVAKGHNFPLMTLVGIVDADLGLANGDPRAAERTFQLLSQVTGRAGRTGLKSHGLLQTYQPQHPVMQAIVSGDASAFYEREIVEREKAVLPPFGRLASIIVSADTRAEAETHARGLRAAAPQVTGIMLLGPAEAPLALIRGRHRFRLLVHGRRNSDMQSFLRTLLASGPKERGSVHVQLDIDPQSFLEGHHHHHH | soluble |
| MSLEQCYTDVTEFAIPASTQKLYLSPVLDGFNSEIIAYNLSTSPNLEQVQTMLEQAFTEKHYENTILHSDQGWQYQHDSYHQFLEGKGIQASMSRKGNSQDNGMMESFFGILKSEMFYGYEKTFKSLNQLEQAIVDYIDYYNNKRIKVKLKGLSPVQYRTKSFGEGHHHHHH | soluble |
| MSLERKKYNFNSEWRLQIGDFPEAKQSQFDDSRWKAVTLPHAFNEDEAFKVSIEQLTDTVVWYRKHFRIPASGKKQKVFIEFEGVRQAGDFYLNGQYLGKHENGVMAAGFDLTPYIKEGDNVLAVRTDNDWMYREKSTNSKFQWNDRNFNANYGGLPKNVFLYVTDEVYQTLPLYSNLKTTGVYIYAKDIDVKGRTATIHAESEVKNDSREPRQFSYQVVLLDADGKQVKSFEGEKVTLQGGETRVVKAASKVNNLHFWSWGYGYLYTVQTILKDNKNQVFDEVSTRTGFRKTRFAEGKIWLNDRVIQMKGYAQRTSNEWPAVGLSVPAWLSDYSNGLVVKGNGNLVRWMHVTPWKQDVESCDRVGLIQAMPAGDSEKDRTGRQWDQRTELMRDAIIYNRNNPSILFYECGNKGISREHMIEMKAIRDQYDPFGGRAIGSREMLDIREAEYGGEMLYINKSEHHPMWATEYCRDEGLRKYWDEYSYPFHKEGDGPLHRNQPATDYNHNQDMLAIAMIRCWYDYWRERPGTGRRVSSGGAKIIFSDTNTHHRGEENYRRSGVTDPMRIEKDAFFAHQVMWNGWVDTEEDNTYIIGHWNYPANTVKPVYVVSTGEEVELFLNSQSLGKGKREYNFLFTFDNVAFKAGKLEAVSYNKAGKEISRYAVSTVGEPAGLKLTTIQNPEGFHADGADLALIQVEVVDKDGKRCPLDNRTIQFDLKGNAEWRGGIAQGKDNYILNTSLPVECGINRALIRSTTQAGKITLTAKAEGLPSATITLETLPVKVSNGLSTYLPQMTLKGNLDKGKTPLTPSYKDTKRDIRIVSAKAGANNETVNQSFDDNERSEWMNDGKLSTAWITYTLEKEAAIDDICIKLNGWRSRSYPLEVFAGNTMIWSGDTNKSLGYVHLNVEKPVRSKQITIRLKGNTSDQDAFGQITEVAAKAANDMELEAKANKNNANLRIIEIEFLEAIKEGHHHHHH | soluble |
| MSLESMLSHPPIPIADMAEHTERLKANDSLKLSQEYESIDPGQQFTWEHSNLEVNKPKNRYANVIAYDHSRVILQPIEGIMGSDYINANYVDGYRRQNAYIATQGPLPETFGDFWRMVWEQRSATIVMMTRLEEKSRIKCDQYWPNRGTETYGFIQVTLLDTIELATFCVRTFSLHKNGSSEKREVRQFQFTAWPDHGVPEYPTPFLAFLRRVKTCNPPDAGPIVVHCSAGVGRTGCFIVIDAMLERIKPEKTVDVYGHVTLMRSQRNYMVQTEDQYSFIHEALLEAVGCGNTEVPARSLYAYIQKLAQVEPGEHVTGMELEFKRLANSKAHTSRFISANLPCNKFKNRLVNIMPYESTRVCLQPIRGVEGSDYINASFIDGYRQQKAYIATQGPLAETTEDFWRMLWENNSTIVVMLTKLREMGREKCHQYWPAERSARYQYFVVDPMAEYNMPQYILREFKVTDARDGQSRTVRQFQFTDWPEQGVPKSGEGFIDFIGQVHKTKEQFGQDGPISVHCSAGVGRTGVFITLSIVLERMRYEGVVDIFQTVKMLRTQRPAMVQTEDEYQFCYQAALEYLGSFDHYATEGHHHHHH | soluble |
| MSLETDDQYYRAIKKIKEAAEASNRAYLTSSKLADMLGISQQSASRIIIDLEKNGYITRTVTKRGQILNITEKGLDVLYTEFADLSRILAIKNNVVITGTVTSGMGEGRYYVARKQYIIQFQEKLGIIPYLGTLNIKVDQASLPELRKIRGFRGIHIEGFKTEDRTFGSVKAFPAKIQNIPCFVIMPERTVYTDVIEIISDKYLREEINLHDGDRVSVEVYTEGHHHHHH | soluble |
| MSLETINNSAKKQPGLYISGQYKPSVSVFSNFSVKETNVPTKQLIALKKDINSVAVGSNATTGISNPGNFTIPYTAEFQDNVANFNGAVGYSFPDSLRIEIEGFHEKFDVKNPGGYTQVKDAYRYFALARDLKDGFFEPKAEDTGVYHTVMKNDGLSILSTMVNVCYDFSVDELPVLPYICAGMGINAIEFFDALHVKFAYQGKLGISYQLFTKVNLFLDGYYHQVIGNQFKNLNVNHVYTLKESPKVTSAVATLDIAYFGGEVGIRFTFEGHHHHHH | not soluble |
| MSLEVKVGLAPMAGYTDSAFRTLAFEWGADFAFSEMVSAKGFLMNSQKTEELLPQPHERNVAVQIFGSEPNELSEAARILSEKYKWIDLNAGCPVRKVVKEGAGGALLKDLRHFRYIVRELRKSVSGKFSVKTRLGWEKNEVEEIYRILVEEGVDEVFIHTRTVVQSFTGRAEWKALSVLEKRIPTFVSGDIFTPEDAKRALEESGCDGLLVARGAIGRPWIFKQIKDFLRSGKYSEPSREEILRTFERHLELLIKTKGERKAVVEMRKFLAGYTKDLKGARRFREKVMKIEEVQILKEMFYNFIKEVEGGSHHHHHH | soluble |
| MSLEVTTPGKLFIAGEYAVVEPGHPAIIVAVDQFVTVTVEETTDEGSIQSAQYSSLPIRWTRRNGELVLDIRENPFHYVLAAIHLTEKYAQEQNKELSFYHLKVTSELDSSNGRKYGLGSSGAVTVGTVKALNIFYDLGLENEEIFKLSALAHLAVQGNGSCGDIAASCYGGWIAFSTFDHDWVNQKVATETLTDLLAMDWPELMIFPLKVPKQLRLLIGWTGSPASTSDLVDRVHQSKEEKQAAYEQFLMKSRLCVETMINGFNTGKISVIQKQITKNRQLLAELSSLTGVVIETEALKNLCDLAESYTGAAKSSGAGGGDCGIVIFRQKSGILPLMTAWEKDGITPLPLHVYTYGQKECKEKHEGHHHHHH | soluble |
| MSLFFHSDVLSVSELNAFAKSLLENHLAGLWIAGEVSNLTRAASGHYYFSLKDSRAQVRCAMFKGAAVRLAKPLKEGDHIEVSGKISIYEARGEFQITVNEVRLKGLGQLYEAYERLKAQLQAEGAFAAERKKPLPVRPQCIGIVTSLAAAALRDVVTTLKRRAPEIPVIVYPTPVQGAGSELQIAQAIKTASQRAECDVLIVCRGGGSIEDLWAFNEEPVVRAIESCTVPVVSGVGHETDFTLADFVADMRAPTPTGAAELVSPNRQESLHRLAQAQCRLKTVLEQRYFDASQKLDWLARQIRHPRQKLDEQRASIGKLAQTLSYSMTQNVRTHTARFERQTQALKHCRPDVSVCKKNIDRFQTALSHAFHQLLTHRRQSLTAQAALLEAVSPQHILERGFSVVKNTRGQVIRNADVLKQGQKLHIIFADGETDVRVSKEQGQQDLFDCIEGHHHHHH | not soluble |
| MSLFIHIVGPGDSLFSIGRRYGASVDQIRGVNGLDETNIVPGQALLIPLYVYTVQPRDTLTAIAAKAFVPLERLRAANPGISPNALQAGAKITIPSISNYIAGTLSFYVLRNPDLDRELINDYAPYSSSISIFEYHIAPNGDIANQLNDAAAIETTWQRRVTPLATITNLTSGGFSTEIVHQVLNNPTARTNLVNNIYDLVSTRGYGGVTIDFEQVSAADRDLFTGFLRQLRDRLQAGGYVLTIAVPAKTSDNIPWLRGYDYGGIGAVVNYMFIMAYDWHHAGSEPGPVAPITEIRRTIEFTIAQVPSRKIIIGVPLYGYDWIIPYQPGTVASAISNQNAIERAMRYQAPIQYSAEYQSPFFRYSDQQGRTHEVWFEDVRSMSRKMQIVREYRLQAIGAWQLTLAEGHHHHHH | soluble |
